{"source": "paper PMC6376064", "target": "Nrf2 (UniProt Q60795)", "assay": "anti-Flag (Nrf2) co-IP, immunoblot", "conditions": "reference: Keap1 wild type; sites T51,S53,T55,T80"}
{"substance": "Keap1 (from UniProt Q9Z2X8) Keap1 4A", "values": [{"measurement": "binding against the reference", "result": "stronger"}]}
